Drawing on publication PMC9581999, this text covers bioluminescence of the single-chain molecular strain probe F-R86SG-F (FRB-RLuc86SG-FKBP) in COS-7 cells, 10^-6 M rapamycin for 5 h against vehicle (0.1% DMSO), substrate K5; fold intensity and bioluminescence of the single-chain molecular strain probe F-R86SG-F (FRB-RLuc86SG-FKBP) in COS-7 cells, 10^-6 M rapamycin for 5 h against vehicle (0.1% DMSO), substrate K6; fold intensity for 1 substance.

The assay concerns the target FKBP12-rapamycin binding domain of mTOR (FRB).

Substance “FK506 binding protein (FKBP) (from UniProt P62942 1-108) (natural protein)” gave a bioluminescence of the single-chain molecular strain probe F-R86SG-F (FRB-RLuc86SG-FKBP) in COS-7 cells, 10^-6 M rapamycin for 5 h against vehicle (0.1% DMSO), substrate K5; fold intensity of 1.6 fold and a bioluminescence of the single-chain molecular strain probe F-R86SG-F (FRB-RLuc86SG-FKBP) in COS-7 cells, 10^-6 M rapamycin for 5 h against vehicle (0.1% DMSO), substrate K6; fold intensity of 3.1 fold.
